Measured values published in US20110033476A1 (published 2011).

Target: 23 amino acid synthetic peptide corresponding to the M2e domain of A/Fort Worth/1/50 (H1N1) (Influenza A virus A/Fort Worth/1/50 (H1N1))
Test: ELISA, 23mer M2e peptide coated at 1 µg/mL (FIG. 14b)

Substance: chimeric mouse V-region/human IgG1 kappa 14C2 antibody
- EC50: 0.01 µg/mL
